The target in assay [1] is T1, Aβ N3pE-40 peptide (N-terminal Glu (position 3 of Aβ) cyclized to pyroglutamate).
T1 construct: Synthetic peptide; also called AβpE3-40; amyloid β N3pE-40
The assay can be described thus: SPR Biacore 3000, AβpE3-40 on CM5 chip, antibody 1-100 nM, bivalent analyte model. (In SPR one partner is held on a chip, and binding of the other changes the refractive index at the surface.)
Experimental: The affinity was determined using a Biacore 3000 with CM5-Chip, on which AβpE3-40 was immobilized. The system was run with 30 μl/min. Measured bulk effects and unspecific binding to the chip surface were corrected by subtraction of the signal of flow cell 4, at which AβpE3-40 was immobilized, and the empty flow cell 3. The association (10 min) was obtained by injection of 300 μl of each concentration. The dissociation was observed over 10 min. Remaining antibody molecules were removed by injection of 5 μl 0.1 M HCL. For every antibody concentration the association and dissociation was recorded. The determination of the association and dissociation rate and the dissociation constant was performed by a global simultaneously fit of association and dissociation phase for all recorded antibody concentrations using the “Bivalent analyte” model.

Assay [2] has as its target T1, Aβ N3pE-40 peptide. Kind of assay: Biacore, peptide on CM5 chip, hybridoma supernatants.
Experimental: Aβ N3pE-40 peptide (positive control) and Aβ N3E-40 peptide (negative control) were coupled on a Biacore CM5 Chip. Unmodified chips are used to determine blank values. […] In this way also binding characteristics of the individual cell culture supernatants were determined.
Assay [3] has as its target T2, MCP-2 (human, UniProt P80075 24-99, limits assumed, N-terminal pyroglutamate (pGlu peptide)).
T2 construct: Whole peptide or N-terminal region
T2 sequence (peptide, looked up): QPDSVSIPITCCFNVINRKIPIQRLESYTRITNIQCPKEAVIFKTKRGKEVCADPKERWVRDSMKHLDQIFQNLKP
Kind of assay: SPR (Biacore 3000), peptide on CM5 chip, antibody 25 µg/ml.
Experimental: (§1) Beside different Aβ species also the cross reactivity to other pGlu-Peptide, which occur in the human body, was determined. This was made by surface plasmon resonance. Following peptides or there N-terminal region of them were immobilized on the surface of CM5-Chips:
(§2) MCP1, MCP2, big gastrin, gonadoliberin, neurotensin, orexin A, fibronectin, collagen 1 and TRH. As positive control also the binding to AβpE3-40 was analyzed. […] For every interaction of the antibody with the different peptides the association and dissociation was recorded. The cross reactivity was determined by evaluation of the association phase concerning rate and signal at the end. The values for all pGlu-Peptides compared with the signal for AβpE3-40.
(§3) The sensograms of the pGlu peptides were compared with the sensogram for AβpE3-40.

Assay [4] deals with T3, Collagen 1 (human).
T3 construct: Whole protein or N-terminal region, and which collagen chain
Described as above.
Experimental: as §1, §2, §3

The target of assay [5] is T4, Orexin A (human, UniProt O43612 34-66, limits assumed, N-terminal pyroglutamate (pGlu peptide)).
T4 construct: Whole peptide or N-terminal region
T4 peptide (looked up): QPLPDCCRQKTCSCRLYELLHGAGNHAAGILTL
The assay is described as above.
Experimental: as §1, §2, §3

Assay [6] deals with T5, Neurotensin (human, UniProt P30990 151-163, N-terminal pyroglutamate (pGlu peptide)).
T5 construct: Whole peptide or N-terminal region
Described as above.
Experimental: as §1, §2, §3

Assay [7] concerns the target MCP-1 (human, UniProt P13500 24-99, limits assumed, N-terminal pyroglutamate (pGlu peptide)). Described as above.
Experimental: as §1, §2, §3
The target in assay [8] is T6, Gonadoliberin (human, UniProt P01148 24-33, N-terminal pyroglutamate (pGlu peptide)).
T6 construct: Whole peptide or N-terminal region
T6 peptide (looked up): QHWSYGLRPG
The assay is described as above.
Experimental: as §1, §2, §3

A value given as a limit tells only on which side of the number the result lay.

As a reminder, the koff is the first-order rate constant of dissociation. Read a low koff as a long-lived complex. As usually defined, the kon is a measure of how fast the partners come together. A low value points to slow association.

B1: Aβ 6-1-6 (monoclonal antibody of hybridoma cell line 6-1-6, DSM ACC 2924) (antibody, V domains shown)
VH: EVQLQQSGPELVKPGASMKISCKASGYSFTGYTMNWVKQSHGKNLEWIGLINPYNGVTRYNQKFKGKATLIVDKSSSTAYMELLSLTSEDSAVYYCTREAKREWDETYWGQGTLVTVSA
VL: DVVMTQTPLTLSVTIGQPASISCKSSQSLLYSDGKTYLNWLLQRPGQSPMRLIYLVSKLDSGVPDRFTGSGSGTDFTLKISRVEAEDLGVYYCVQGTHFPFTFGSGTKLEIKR
notes: Mouse hybridoma IgG; The entries as printed begin with a leader and end with the first residues of the constant region; Heavy chain amplified with primer MHCG1, light chain with MKC; also called clone 6-1-6; N3pE antibody clone 6-1-6
Consider B1, for which the Kd in assay [1] was determined as 1.57 nM. The molecule also gave a koff in assay [1] of 0.000263 s⁻¹. Also, in assay [1], the on-rate (kon) is 167000 M⁻¹ s⁻¹. The “association, fold of clone 12-1” value in assay [2] was around 5 fold. The “% cross reactivity (against AβpE3-40)” value in assay [3], in assay [4], in assay [5], in assay [6], in assay [7] and in assay [8] was below 1% in each case.

For the origin of these results see patent US20120064547A1 (PROBIODRUG, published 2012).
